# Like-named read-outs stand apart in the source and are kept apart here.
# Experiments:
# Assay in all cases: cell-based or functional assay
# [1] = molecular target: hemagglutinin (HA) of influenza A/Victoria/2570/2019 H1N1 (influenza A virus A/Victoria/2570/2019 (H1N1))
# [2] = molecular target: hemagglutinin (HA) of influenza A/Cambodia/e0826360/2020 H3N2 (influenza A virus A/Cambodia/e0826360/2020 (H3N2))
# [3] = molecular target: hemagglutinin (HA) of influenza B/Phuket/3073/2013 B-Yam (influenza B virus B/Phuket/3073/2013)
# [4] = molecular target: hemagglutinin (HA) of influenza A/Brisbane/02/2018 H1N1 (influenza A virus A/Brisbane/02/2018 (H1N1))
# [5] = molecular target: hemagglutinin (HA) of influenza B/Colorado/06/2017 B-Vic (influenza B virus B/Colorado/06/2017)
# [6] = molecular target: hemagglutinin (HA) of influenza B/Washington/02/2019 B-Vic (influenza B virus B/Washington/02/2019)
# [7] = molecular target: hemagglutinin (HA) of influenza A/Singapore/INFIMH-16-0019/2016 H3N2 (influenza A virus A/Singapore/INFIMH-16-0019/2016 (H3N2))
# [8] = molecular target: hemagglutinin (HA) of influenza B/California/12/2015 B-Yam (influenza B virus B/California/12/2015)
# [9] = molecular target: hemagglutinin (HA) of influenza B/Maryland/15/2016 B-Vic (influenza B virus B/Maryland/15/2016)
# [10] = molecular target: hemagglutinin (HA) of influenza A/Kansas/14/2017 H3N2 (influenza A virus A/Kansas/14/2017 (H3N2))
# [11] = molecular target: hemagglutinin (HA) of influenza B/Austria/1359417/2021 (influenza B virus B/Austria/1359417/2021)
# [12] = molecular target: hemagglutinin (HA) of influenza B/Phuket/3073/2013 B-Yam (influenza B virus B/Phuket/3073/2013); remark: listed apart in the source
# [13] = molecular target: hemagglutinin (HA) of influenza A/Brisbane/02/2018 H1N1 (influenza A virus A/Brisbane/02/2018 (H1N1)); remark: listed apart in the source
# [14] = molecular target: hemagglutinin (HA) of influenza A/Wisconsin/588/2019 (influenza A virus A/Wisconsin/588/2019)
# [15] = molecular target: hemagglutinin (HA) of influenza B/Colorado/06/2017 B-Vic (influenza B virus B/Colorado/06/2017); remark: listed apart in the source
# [16] = molecular target: hemagglutinin (HA) of influenza B/Washington/02/2019 B-Vic (influenza B virus B/Washington/02/2019); remark: listed apart in the source
# [17] = molecular target: hemagglutinin (HA) of influenza A/Hawaii/70/2019 (influenza A virus A/Hawaii/70/2019)
# [18] = molecular target: hemagglutinin (HA) of influenza A/Tasmania/503/2020 (H3N2) (influenza A virus A/Tasmania/503/2020 (H3N2))
# [19] = molecular target: hemagglutinin (HA) of influenza A/Singapore/INFIMH-16-0019/2016 H3N2 (influenza A virus A/Singapore/INFIMH-16-0019/2016 (H3N2)); remark: listed apart in the source
# [20] = molecular target: hemagglutinin (HA) of influenza A/Sydney/5/2021 (influenza A virus A/Sydney/5/2021)
# [21] = molecular target: hemagglutinin (HA) of influenza A/Darwin/6/2021 (influenza A virus A/Darwin/6/2021)
# [22] = molecular target: hemagglutinin (HA) of influenza A/Kansas/14/2017 H3N2 (influenza A virus A/Kansas/14/2017 (H3N2)); remark: listed apart in the source
# [23] = molecular target: hemagglutinin (HA) of influenza A/Victoria/2570/2019 H1N1 (influenza A virus A/Victoria/2570/2019 (H1N1)); remark: listed apart in the source
# [24] = molecular target: hemagglutinin (HA) of influenza A/Brisbane/02/2018 H1N1 (influenza A virus A/Brisbane/02/2018 (H1N1)); remark: listed apart in the source
# [25] = molecular target: hemagglutinin (HA) of influenza A/Hong Kong/45/2019 H3N2 (influenza A virus A/Hong Kong/45/2019 (H3N2))
# [26] = molecular target: hemagglutinin (HA) of influenza B/Brisbane/60/2008 B-Vic (influenza B virus B/Brisbane/60/2008)
# [27] = molecular target: hemagglutinin (HA) of influenza A/Hong Kong/4801/2014 H3N2 (influenza A virus A/Hong Kong/4801/2014 (H3N2))
# [28] = molecular target: hemagglutinin (HA) of influenza A/Switzerland/9715293/2013 H3N2 (influenza A virus A/Switzerland/9715293/2013 (H3N2))
Substance,HAI titer [1] [titer],HAI titer [2] [titer],HAI titer ratio of SAB-176 to hIVIG [2] [X],HAI titer [3] [titer],HAI titer of drug product [3] [titer],HAI titer ratio of SAB-176 to hIVIG [3] [X],HAI titer [4] [titer],HAI titer [5] [titer],HAI titer ratio of SAB-176 to hIVIG [5] [X],HAI titer [6] [titer],HAI titer ratio of SAB-176 to hIVIG [6] [X],HAI titer [7] [titer],HAI titer of drug product [7] [titer],HAI titer ratio of SAB-176 to hIVIG [7] [X],HAI titer [8] [titer],HAI titer ratio of SAB-176 to hIVIG [8] [X],HAI titer [9] [titer],HAI titer of drug product [9] [titer],HAI titer ratio of SAB-176 to hIVIG [9] [X],HAI titer [10] [titer],other results
SAB-176 Lot 2 (PD2001010QR) (antibody),256,256,8 to 16,256,3580,32,512,256,16 to 32,128,16 to 32,512,7170,8 to 32,128,16 to 32,256,3580,16 to 32,64,HAI titer ratio of SAB-176 to hIVIG [1]: 16 to 32 X; HAI titer ratio of SAB-176 to hIVIG [4]: 16 to 32 X; HAI titer ratio of SAB-176 to hIVIG [10]: 2 to 16 X; HAI titer [11]: 28 titer; HAI titer [12]: 160 titer; HAI titer [13]: 1280 titer; HAI titer [14]: 640 titer; HAI titer [15]: 320 titer; HAI titer [16]: 160 titer; HAI titer [17]: 640 titer; HAI titer [18]: 160 titer; HAI titer [19]: 320 titer; HAI titer [20]: 320 titer; HAI titer [21]: 113 titer; HAI titer [22]: 40 titer
SAB-176 Lot 1 (PD1901102QR) (antibody),–,128,4 to 8,128,1920,16,–,256,16 to 32,64,8 to 16,512,7680,8 to 32,128,16 to 32,256,3840,16 to 32,64,HAI titer [23]: 256 titer; HAI titer ratio of SAB-176 to hIVIG [23]: 16 to 32 X; HAI titer [24]: 512 titer; HAI titer ratio of SAB-176 to hIVIG [24]: 16 to 32 X; HAI titer [25]: 64 titer; HAI titer ratio of SAB-176 to hIVIG [25]: 4 to 8 X; HAI titer ratio of SAB-176 to hIVIG [10]: 2 to 16 X; HAI titer [11]: 28 titer; HAI titer [12]: 160 titer; HAI titer [13]: 1280 titer; HAI titer [14]: 320 titer; HAI titer [15]: 160 titer; HAI titer [16]: 160 titer; HAI titer [17]: 1280 titer; HAI titer [18]: 40 titer; HAI titer [19]: 320 titer; HAI titer [20]: 320 titer; HAI titer [21]: 113 titer; HAI titer [22]: 40 titer
negative control IgG (antibody),< 1,< 1,–,< 1,–,–,< 1,< 1,–,< 1,–,< 1,–,–,< 1,–,< 1,–,–,< 1,HAI titer [25]: < 1 titer; HAI titer [26]: < 1 titer; HAI titer [27]: < 1 titer; HAI titer [28]: < 1 titer
SAB-176 (antibody),–,–,–,512,–,–,–,512,–,–,–,512,–,–,–,–,512,–,–,–,HAI titer [26]: 64 titer; HAI titer [27]: 1024 titer; HAI titer [28]: > 2048 titer

# Reference: patent US20240279315A1 (priority 2023, published 2024)
